Assay [1] addresses T1, endogenous Ack1 of mouse embryo fibroblasts (mouse, UniProt O54967 1-1055, limits assumed).
T1 construct: Endogenous protein immunoprecipitated from MEF lysates with anti-Ack1 antibodies; also called TNK2
The assay is described as follows: co-IP with Ack1 antibodies from EGF-treated MEF lysates, immunoblot with pan-AKT antibodies.
Procedure: Membrane and cytosolic fractionation was performed using membrane fractionation kit (BioVision, Inc, CA). The nuclear/cytoplasmic fractionation was performed using protocol from Abcam (Abcam, Inc., Cambridge, Mass.). For immunoprecipitations, cells were lysed in receptor lysis buffer (RLB) containing 25 mmol/L Tris (pH 7.5), 500 mmol/L NaCl, 1% Triton X-100, 10% glycerol, phosphatase inhibitors (10 mmol/L NaF, 1 mmol/L Na₂VO₄), and protease inhibitor mix (Hoffmann-La Roche Inc., Switzerland). […] The kinase assay was performed using kit from Calbiochem.

Assay [2] concerns the target T2, HA-tagged AKT Y176F mutant (UniProt P31749 1-480).
T2 construct: also called Y176F mutant of AKT; HA-Y176F; not shown: HA tag
The assay is described as follows: pull-down of purified proteins on GST-Ack1 glutathione beads, immunoblot. For orientation: A western blot detects proteins with antibodies after separation by electrophoresis.

Experimental findings from patent publication US20120053225A1 (H LEE MOFFITT CANCER CENTER AND RESEARCH INSTITUTE, published 2012) are described below.

T1 sequence (O54967 whole entry): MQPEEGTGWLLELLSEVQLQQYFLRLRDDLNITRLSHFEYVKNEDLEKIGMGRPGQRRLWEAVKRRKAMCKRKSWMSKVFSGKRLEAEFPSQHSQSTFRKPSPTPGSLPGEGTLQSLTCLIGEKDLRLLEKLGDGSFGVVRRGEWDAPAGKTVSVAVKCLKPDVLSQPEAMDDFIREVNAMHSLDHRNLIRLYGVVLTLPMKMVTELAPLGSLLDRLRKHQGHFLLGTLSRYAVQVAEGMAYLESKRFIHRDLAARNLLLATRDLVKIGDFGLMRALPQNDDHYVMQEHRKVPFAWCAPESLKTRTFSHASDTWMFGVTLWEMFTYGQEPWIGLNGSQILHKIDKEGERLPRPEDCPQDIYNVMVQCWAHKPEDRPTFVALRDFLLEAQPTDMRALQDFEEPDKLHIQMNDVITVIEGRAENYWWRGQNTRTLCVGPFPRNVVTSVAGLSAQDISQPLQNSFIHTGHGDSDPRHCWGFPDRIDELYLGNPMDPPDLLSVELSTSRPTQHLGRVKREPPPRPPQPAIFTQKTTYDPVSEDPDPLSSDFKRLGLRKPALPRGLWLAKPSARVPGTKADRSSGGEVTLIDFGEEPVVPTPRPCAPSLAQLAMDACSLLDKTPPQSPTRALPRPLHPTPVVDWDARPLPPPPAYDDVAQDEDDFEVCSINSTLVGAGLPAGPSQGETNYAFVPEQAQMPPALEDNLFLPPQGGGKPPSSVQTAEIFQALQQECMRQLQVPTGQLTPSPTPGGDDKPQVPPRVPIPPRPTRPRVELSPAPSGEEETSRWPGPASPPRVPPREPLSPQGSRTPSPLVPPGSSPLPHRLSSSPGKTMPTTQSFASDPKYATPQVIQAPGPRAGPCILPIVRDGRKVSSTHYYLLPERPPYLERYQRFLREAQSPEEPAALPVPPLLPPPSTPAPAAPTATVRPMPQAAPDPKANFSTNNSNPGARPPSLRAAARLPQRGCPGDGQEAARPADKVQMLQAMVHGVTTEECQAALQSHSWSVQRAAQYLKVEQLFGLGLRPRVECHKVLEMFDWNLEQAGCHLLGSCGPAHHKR

B1: endogenous Akt1 of mouse embryo fibroblasts (enzyme, UniProt P31750 1-480, looked up)
chain: MNDVAIVKEGWLHKRGEYIKTWRPRYFLLKNDGTFIGYKERPQDVDQRESPLNNFSVAQCQLMKTERPRPNTFIIRCLQWTTVIERTFHVETPEEREEWATAIQTVADGLKRQEEETMDFRSGSPSDNSGAEEMEVSLAKPKHRVTMNEFEYLKLLGKGTFGKVILVKEKATGRYYAMKILKKEVIVAKDEVAHTLTENRVLQNSRHPFLTALKYSFQTHDRLCFVMEYANGGELFFHLSRERVFSEDRARFYGAEIVSALDYLHSEKNVVYRDLKLENLMLDKDGHIKITDFGLCKEGIKDGATMKTFCGTPEYLAPEVLEDNDYGRAVDWWGLGVVMYEMMCGRLPFYNQDHEKLFELILMEEIRFPRTLGPEAKSLLSGLLKKDPTQRLGGGSEDAKEIMQHRFFANIVWQDVYEKKLSPPFKPQVTSETDTRYFDEEFTAQMITITPPDQDDSMECVDSERRPHFPQFSYSASGTA
notes: Endogenous protein in MEF lysates
Regarding B1, the binding result in assay [1] is on record as “binds”.

B2: GST-Ack1 (kinase, SH3 and CRIB domain), expressed in E. coli (enzyme, UniProt Q07912 110-476, looked up)
chain: GEGPLQSLTCLIGEKDLRLLEKLGDGSFGVVRRGEWDAPSGKTVSVAVKCLKPDVLSQPEAMDDFIREVNAMHSLDHRNLIRLYGVVLTPPMKMVTELAPLGSLLDRLRKHQGHFLLGTLSRYAVQVAEGMGYLESKRFIHRDLAARNLLLATRDLVKIGDFGLMRALPQNDDHYVMQEHRKVPFAWCAPESLKTRTFSHASDTWMFGVTLWEMFTYGQEPWIGLNGSQILHKIDKEGERLPRPEDCPQDIYNVMVQCWAHKPEDRPTFVALRDFLLEAQPTDMRALQDFEEPDKLHIQMNDVITVIEGRAENYWWRGQNTRTLCVGPFPRNVVTSVAGLSAQDISQPLQNSFIHTGHGDSDPRHCW
notes: domain: kinase, SH3 and CRIB domain; also called GST-tagged Ack1; not shown: GST tag
On to B2, for which, in assay [2], the binding result is given as “no binding”.
